In patent US20080311122A1 (AstraZeneca / MedImmune, published 2008):
Positions count from the first letter of the chain named. Values belong to the binder of their own block, whether it stands above or below them.

Experiments:
[1] = target: T1, HMG2 (UniProt P40673 2-209, limits assumed); test: ELISA, wells coated with HMGB2 at 5 ug/mL, OD 490
T1 construct: also called HMGB2; HMBG2
T1 sequence (looked up): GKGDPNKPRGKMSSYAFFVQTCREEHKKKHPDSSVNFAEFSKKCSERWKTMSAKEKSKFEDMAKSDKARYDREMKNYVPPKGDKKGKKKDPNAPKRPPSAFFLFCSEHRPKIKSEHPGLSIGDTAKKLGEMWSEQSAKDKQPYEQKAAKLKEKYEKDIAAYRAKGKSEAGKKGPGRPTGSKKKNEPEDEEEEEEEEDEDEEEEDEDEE
Procedure: (§1) Binding to HMG1 vs. HMG2: Ultra high-binding ELISA plates (ThermoLab systems, #3855) were coated with either 5 ug/mL of Calf thymus HMGB1 or HMBG2 diluted in 10 mM Phosphate buffered saline (PBS), pH 7.2 and incubate overnight at 4 degrees. The plates were washed twice with Ca and Mg free PBS and 100 microliters of anti-HMGB1 antibody diluted in 10 mM PBS, pH 7.2+1% bovine serum albumin (BSA) to a final concentration of 10 ug/mL was added to each well and the plates were incubated 1 hour at room temperature. The wells were washed three times with 100 μl of PBS, pH 7.2. HRP labeled goat-anti-human IgG Kappa-chain (KPL, #14-10-10) and goat-anti-human IgG Lambda-chain (KPL, #14-10-11) were diluted in 10 mM PBS+1% BSA 1:1000 and 100 μl were added to each well and incubated for 1 hour at room temperature. The wells were then washed three times with 100 μl of PBS, pH 7.2. OPD substrate (Pierce chemical company, #34006) was prepared following the manufacturers instructions and 100 μl of prepared substrate was added to each well and the plates incubated at room temperature in the dark for 20-30 minutes. The reaction was stopped with the addition of 100 μl of 2M H₂SO₄, and the plates read on a plate reader at a wavelength of 490 nm.

[2] = target: T2, HMG1 B Box peptide amino acids 150-183; test: ELISA, wells coated with HMG1 B Box peptide 150-183 at 10 ug/ml
T2 peptide: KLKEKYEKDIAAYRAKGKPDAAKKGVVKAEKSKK
Procedure: (§2) The plate was then blocked with 4% milk powder dissolved in PBS at 37° C. for 1 hour. The blocking solution was removed and replaced with human anti-HMG1 antibodies at various concentrations (see FIGS. 5A-B). […] HRP activity was detected with Sureblue HRP substrate (KPL). Plates were read at 450 nm using a Kinetic Microplate Reader (Molecular Devices). […] After washing and blocking with 1% BSA in PBS, the biotinylated peptides were individually added into the avidin coated wells and incubated for 30 min at room temperature. The serial diluted antibody G4, S16 and S6 at the initial concentration at 10 μg/ml were then transferred into the wells followed by adding mouse anti human IgG-HRP conjugate (Pierce). Detection was accomplished by adding 50 μl of tetramethylbenzidine (TMB) substrate (KPL) and the absorbance was read at […].

[3] = target: T3, recombinant rat HMGB-1, Europium-labeled (rat, UniProt P63159 1-215, limits assumed, Europium label, molar ratio of HMGB-1 to Eu 1:5); test: inhibition of binding of Eu-labeled HMGB-1 to THP-1 cells
T3 construct: also called Europium-labeled HMGB-1; recombinant HMG1 (Thp-1 assay)
T3 sequence (looked up): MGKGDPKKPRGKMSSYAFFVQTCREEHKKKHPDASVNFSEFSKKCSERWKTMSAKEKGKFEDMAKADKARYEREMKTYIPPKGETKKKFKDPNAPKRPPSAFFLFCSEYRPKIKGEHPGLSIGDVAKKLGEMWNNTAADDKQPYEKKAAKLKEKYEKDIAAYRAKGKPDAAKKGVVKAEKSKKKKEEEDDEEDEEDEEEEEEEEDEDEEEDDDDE
Procedure: HMG1 binding to THP-1 Cells: Recombinant rat HMGB-1 was labeled using Eu-labelling Kit from PerkinElmer. Molar ratio of HMGB-1 to Eu is 1:5. THP-1 were cultured as the protocol from ATCC. Cells were harvested and suspended at concentration 1×10⁶/ml in assay buffer containing 1×DELFIA L*R binding buffer (PerkinElmer), 50% of DELFIA stabilizer (PerkinElmer) and 0.05% of sodium azide. 100 μl of cells (1×10⁵) was added into wells in 96 well cell culture plate. The plate was incubated with gentle shaking at 4° C. for one hour. 100 μl of assay buffer containing 2 nM of Europium-labeled HMGB-1 mixed with various concentrations (333, 166.5, 83.25, 41.6, 20.8, 10.4 and 5.2 nM) of human anti-HMGB1 antibodies E11 or G2 or soluble human RAGE-Fc, were added into each wells respectively. After one hour incubation with gentle shaking at 4° C., the cells were washed four times with 1×L*R wash buffer (PerkinElmer) by centrifuging at 1200 rpm×5 min. 200 μl of enhancement solution was added into each well to dissociate and enhance Eu fluorescence at 615 nm. The fluorescence was measured with Wallac Victor Fluorometer. Assay was performed in triplicate and human antibody R3-47 was used the negative isotype control.

[4] = target: T4, HMG1 purified from bovine (calf) thymus (bovine, UniProt P10103 2-215); test: ELISA, wells coated with calf thymus HMGB1 at 5 ug/mL, antibody at 10 ug/mL, anti-human kappa/lambda-HRP, OD 490
T4 construct: also called Calf thymus HMGB1; thymus HMG1
T4 sequence (looked up): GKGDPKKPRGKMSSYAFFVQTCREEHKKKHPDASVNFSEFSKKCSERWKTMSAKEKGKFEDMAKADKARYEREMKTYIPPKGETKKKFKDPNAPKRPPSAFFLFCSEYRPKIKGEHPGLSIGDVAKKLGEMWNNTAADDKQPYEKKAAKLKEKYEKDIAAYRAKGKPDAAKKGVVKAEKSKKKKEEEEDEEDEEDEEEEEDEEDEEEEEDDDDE
Procedure: as §1

[5] = target: T5, recombinant HMG1 purified from E. coli as a calmodulin binding protein (CBP) fusion protein (human, UniProt A9RA84 1-215 (Papio anubis entry)); test: cell-based or functional assay
T5 sequence: T3 sequence (looked up) with D189E, E202D

[6] = target: T6, HMG1 B Box peptide amino acids 91-169; test: ELISA, wells coated with HMG1 B Box peptide 91-169 at 10 ug/ml
T6 construct: also called HMG1 peptide 91-169
T6 peptide: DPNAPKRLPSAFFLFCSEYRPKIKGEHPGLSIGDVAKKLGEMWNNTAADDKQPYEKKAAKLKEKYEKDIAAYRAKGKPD
Procedure: as §2

[7] = target: T7, activated HMG1 prepared from LPS stimulated THP-1 cells (human, UniProt P09429 1-215); test: cell-based or functional assay
T7 sequence (looked up): T3 sequence (looked up) with D189E, E202D

[8] = target: T5, recombinant HMG1 purified from E. coli …; test: BIAcore, mAb immobilized, HMG1 injected, steady-state model
Procedure: HMG1 Binding Affinity via BIAcore Analysis: All experiments were performed on a BIAcore 3000 instrument (BIAcore, Inc., Piscataway, N.J.). Briefly, each mAb was immobilized to a CM5 sensor chip using a standard amino coupling chemistry. Separately a reference (control) flow cell was also prepared. Two-fold, serial dilutions of HMG1 in instrument buffer were sequentially injected at a slow flow rate over the individual mAb and reference flow-cell surfaces. Following the binding and dissociation of HMG1, the mAbs surfaces were regenerated with a brief pulse of 1M NaCl-50 mM NaOH. At the end of each experiment, the binding curves were evaluated using a steady-state model available through the BIA evaluation software supplied by BIAcore, Inc. (Piscataway, N.J.).

[9] = target: T5, recombinant HMG1 purified from E. coli …; test: ELISA, rHMG1 preincubated with antibody, coated RAGE-Fc
Procedure: HMG1 binding to RAGE-Ig by ELISA: 50 μl/well of RAGE-Fc fusion protein at 5 μg/ml in PBS was added to each well of an ELISA plate and incubated overnight at 4° C. The plate was then blocked with 200 μl of 5% milk at 37° C. for 1 hr and washed 3× with PBS/Tween. 50 μl/well of diluted HMGB1 solution. For dose curves, HMGB1 concentrations started at 4 ug/ml in PBS. For antibody blocking the HMGB1 was preincubated in another plate with human anti-HMG1 antibodies or buffer, then transferred to the RAGE-coated plate. The plates were then incubated at room temperature for 2 hours and washed 3×. To detect any HMG1 bound to the immobilized RAGE-Fc a mixture of biotinylated mouse anti-HMG1 mAbs (10D4, 4H11, 3E10 and 5C12) each at 1 ug/ml, total Ab: 4 ug/ml, were added to each well and the plate was incubated for 1 hour at room temperature. The plate was then washed and Strepavidin-HPR was added to each well and incubated 15 min. The plate was then washed 3× and blotted dry. 100 μl of TMB developing agent was added and the plate read at 650 nm. Values were calculated as percent of inhibition with HMG1 alone equal to 0% inhibition. The data in FIG. 9 and summarized in Table 1 represent the average of two separate experiments.

- binding result [2]: no binding (tested: 10 ug/ml (log 1.00))
- IC50 [3]: 73.3 nM
- binding result [4]: binds
- IC50, inhibition of rHMG1 stimulated IL-1β release from human PBMC [5]: 5030 ng/mL
- IC50, inhibition of rHMG1 stimulated IL-6 release from human PBMC [5]: 0.994 nM
- IC50, inhibition of rHMG1 stimulated IL-12 release from human PBMC [5]: 1260 ng/mL
- IC50, inhibition of rHMG1 stimulated TNF-α release from human PBMC [5]: 1350 ng/mL
- binding result [6]: no binding (tested: 10 ug/ml (log 1.00))
B1: anti-HMG1 antibody G2 (antibody, V domains shown)
VH: EVQLLESGGGLVQPGGSLRLSCAASGFTFSWYKMQWVRQAPGKGLEWVSGISPSGGSTAYADSVKGRFTISRDNSKNTLYLQMNSLRAEDTAVYYCAKMGLFNTGNSYVDYWGQGTLVTVSS
VL: AQSELTQPPSVSEAPGQRVTISCSGSTSNIGNNAVIWYQQLPGKAPKLLIYYDDLLPSGVSDRFSGSKSGTSGSLAISGLQSEDEADYYCASWDDNLNGPLFGGGTKLTVL
- binding result [1]: no binding (tested: 10 ug/mL (not on the sheet))

- binding result [2]: no binding (tested: 10 ug/ml (log 1.00))
- binding result [4]: binds
- IC50, inhibition of native activated HMG1 stimulated IL-6 release from human PBMC [7]: 11.5 nM
- IC50, inhibition of HMG1 stimulated NO release from macrophages [5]: 41700 ng/mL
- IC50, inhibition of rHMG1 stimulated IL-1β release from human PBMC [5]: 80.9 ng/mL
- IC50, inhibition of rHMG1 stimulated IL-6 release from human PBMC [5]: 0.162 nM
- binding result [6]: no binding (tested: 10 ug/ml (log 1.00))
B2: anti-HMG1 antibody S17 (antibody, V domains shown)
VH: EVQLLESGGGLVQPGGSLRLSCAASGFTFSYYDMHWVRQAPGKGLEWVSRISPSGGYTWYADSVKGRFTISRDNSKNTLYLQMNSLRAEDTAVYYCTRGRYTSGWHEYFDPWGQGTLVTVSS
VL: DIQMTQSPSSLSASVGDRVTITCRASQSIGTYLNWYQQKPGTAPKVLIYAASSLQSGVPSRFSGSGSGTDFTLTISSLQPEDFSTYYCQQSYNTPRTFGQGTKLEIK
- binding result [1]: no binding (tested: 10 ug/mL (not on the sheet))

- binding result [2]: no binding (tested: 10 ug/ml (log 1.00))
- binding result [4]: binds
- IC50, inhibition of rHMG1 stimulated IL-1β release from human PBMC [5]: 2590 ng/mL
- IC50, inhibition of rHMG1 stimulated IL-6 release from human PBMC [5]: 0.324 nM
- IC50, inhibition of rHMG1 stimulated IL-12 release from human PBMC [5]: 1130 ng/mL
- IC50, inhibition of rHMG1 stimulated TNF-α release from human PBMC [5]: 875 ng/mL
- Kd [8]: 54 nM
- percent inhibition of HMG1 binding to RAGE-Fc [9]: ≥ 35%
- binding result [6]: no binding (tested: 10 ug/ml (log 1.00))
B3: anti-HMG1 antibody S10 (antibody, V domains shown)
VH: EVQLLESGGGLVQPGGSLRLSCAASGFTFSWYDMWWVRQAPGKGLEWVSWIVPSGGITAYADSVKGRFTISRDNSKNTLYLQMNSLRAEDTATYYCARGNYGPSPFDYWGQGTLVTVSS
VL: DIQMTQSPGTLSLSPGERATLSCRATQSVRKNFLAWYQQKPGQAPRLLIYDASSRATGIPDRFSGSGSGTDFTLTISRLEPEDFAVYYCQQYGNSPIIFGQGTRLEIK
- binding result [1]: no binding (tested: 10 ug/mL (not on the sheet))
